The experiment has as its system mutant form of α-Gal A expressed in HEK-293 cells. Nature of the experiment: HEK assay (GLP HEK / Migalastat Amenability Assay): α-Gal A activity in lysates of transiently transfected HEK-293 cells incubated with or without 10 μM migalastat. The following applies: for Absolute increase (% WT): 10 μM migalastat versus baseline; for Relative increase: 10 μM migalastat α-Gal A activity relative to baseline; for 10 μM migalastat α-Gal A activity (% WT): 5 days; for 10 μM migalastat α-Gal A activity (% WT) / Baseline α-Gal A activity (% WT): percentage of baseline wild-type α-Gal A activity; for 10 μM migalastat α-Gal A activity (% WT) / Baseline α-Gal A activity (% WT) / Baseline α-Gal A activity / 10 μM migalastat α-Gal A activity: mean ± SEM; for Baseline α-Gal A activity (% WT): absence of migalastat; for Baseline α-Gal A activity / 10 μM migalastat α-Gal A activity: lysates of HEK-293 cells transfected with the mutant form; for Baseline α-Gal A activity: incubated 5 days in the absence of migalastat; for 10 μM migalastat α-Gal A activity: incubated 5 days with 10 μM migalastat. Format: cell-based, human. The procedure:
Such mutations or variants are also referred to herein as “HEK assay amenable” mutations or variants.
The α-Gal A activity is expressed as the nmoles of free 4-MU released per milligram of protein per hour (nmol/mg/hr).
In Table 7, values for the mean±standard error of the mean (SEM) were calculated. nmol/mg/hr indicates “nmoles of free 4-MU released per mg of protein per hour”. WT indicates “wild-type”. NC indicates “not calculable”. N/A indicates “not applicable”.

B1: L106I (protein)
chain: MQLRNPELHLGCALALRFLALVSWDIPGARALDNGLARTPTMGWLHWERFMCNLDCQEEPDSCISEKLFMEMAELMVSEGWKDAGYEYLCIDDCWMAPQRDSEGRIQADPQRFPHGIRQLANYVHSKGLKLGIYADVGNKTCAGFPGSFGYYDIDAQTFADWGVDLLKFDGCYCDSLENLADGYKHMSLALNRTGRSIVYSCEWPLYMWPFQKPNYTEIRQYCNHWRNFADIDDSWKSIKSILDWTSFNQERIVDVAGPGGWNDPDMLVIGNFGLSWNQQVTQMALWAIMAAPLFMSNDLRHISPQAKALLQDKDVIAINQDPLGKQGYQLRQGDNFEVWERPLSGLAWAVAMINRQEIGGPRSYTIAVASLGKGVACNPACFITQLLPVKRKLGFYEWTSRLRSHINPTGTVLLQLENTMQMSLKDLL
For B1, the “Absolute increase (% WT)” value came out at 23.6 % WT, the Relative increase was 1.5, the “10 μM migalastat α-Gal A activity (% WT)” value amounted to 70 ± 4.7 % WT and the “Baseline α-Gal A activity (% WT)” value was 46.4 ± 2.7 % WT. Besides, the “Baseline α-Gal A activity” value was 13485 ± 1014 nmol/mg/h and the “10 μM migalastat α-Gal A activity” value was 20120 ± 1416 nmol/mg/h.

B2: Q107H (protein)
chain: MQLRNPELHLGCALALRFLALVSWDIPGARALDNGLARTPTMGWLHWERFMCNLDCQEEPDSCISEKLFMEMAELMVSEGWKDAGYEYLCIDDCWMAPQRDSEGRLHADPQRFPHGIRQLANYVHSKGLKLGIYADVGNKTCAGFPGSFGYYDIDAQTFADWGVDLLKFDGCYCDSLENLADGYKHMSLALNRTGRSIVYSCEWPLYMWPFQKPNYTEIRQYCNHWRNFADIDDSWKSIKSILDWTSFNQERIVDVAGPGGWNDPDMLVIGNFGLSWNQQVTQMALWAIMAAPLFMSNDLRHISPQAKALLQDKDVIAINQDPLGKQGYQLRQGDNFEVWERPLSGLAWAVAMINRQEIGGPRSYTIAVASLGKGVACNPACFITQLLPVKRKLGFYEWTSRLRSHINPTGTVLLQLENTMQMSLKDLL
Take B2: the “Absolute increase (% WT)” value was determined as 9.1 % WT, the Relative increase was 1.2, the “10 μM migalastat α-Gal A activity (% WT)” value was 50.8 ± 2 % WT and the “Baseline α-Gal A activity (% WT)” value is reported as 41.7 ± 1.5 % WT. Further, the “Baseline α-Gal A activity” value came to 12307 ± 487 nmol/mg/h and the “10 μM migalastat α-Gal A activity” value came out at 14822 ± 384 nmol/mg/h.

B3: L106P (protein)
chain: MQLRNPELHLGCALALRFLALVSWDIPGARALDNGLARTPTMGWLHWERFMCNLDCQEEPDSCISEKLFMEMAELMVSEGWKDAGYEYLCIDDCWMAPQRDSEGRPQADPQRFPHGIRQLANYVHSKGLKLGIYADVGNKTCAGFPGSFGYYDIDAQTFADWGVDLLKFDGCYCDSLENLADGYKHMSLALNRTGRSIVYSCEWPLYMWPFQKPNYTEIRQYCNHWRNFADIDDSWKSIKSILDWTSFNQERIVDVAGPGGWNDPDMLVIGNFGLSWNQQVTQMALWAIMAAPLFMSNDLRHISPQAKALLQDKDVIAINQDPLGKQGYQLRQGDNFEVWERPLSGLAWAVAMINRQEIGGPRSYTIAVASLGKGVACNPACFITQLLPVKRKLGFYEWTSRLRSHINPTGTVLLQLENTMQMSLKDLL
For the molecule B3, the “Absolute increase (% WT)” value is 25.8 % WT, the Relative increase is 1.8, the “10 μM migalastat α-Gal A activity (% WT)” value is 56.5 ± 3.9 % WT and the “Baseline α-Gal A activity (% WT)” value is listed as 30.7 ± 2.7 % WT. Moreover, the “Baseline α-Gal A activity” value was found to be 8835 ± 878 nmol/mg/h and the “10 μM migalastat α-Gal A activity” value amounted to 16075 ± 1039 nmol/mg/h.

B4: A108E (protein)
chain: MQLRNPELHLGCALALRFLALVSWDIPGARALDNGLARTPTMGWLHWERFMCNLDCQEEPDSCISEKLFMEMAELMVSEGWKDAGYEYLCIDDCWMAPQRDSEGRLQEDPQRFPHGIRQLANYVHSKGLKLGIYADVGNKTCAGFPGSFGYYDIDAQTFADWGVDLLKFDGCYCDSLENLADGYKHMSLALNRTGRSIVYSCEWPLYMWPFQKPNYTEIRQYCNHWRNFADIDDSWKSIKSILDWTSFNQERIVDVAGPGGWNDPDMLVIGNFGLSWNQQVTQMALWAIMAAPLFMSNDLRHISPQAKALLQDKDVIAINQDPLGKQGYQLRQGDNFEVWERPLSGLAWAVAMINRQEIGGPRSYTIAVASLGKGVACNPACFITQLLPVKRKLGFYEWTSRLRSHINPTGTVLLQLENTMQMSLKDLL
In the case of B4, the “Absolute increase (% WT)” value is on record as 14.2 % WT, the Relative increase came out at 1.4, the “10 μM migalastat α-Gal A activity (% WT)” value turned out to be 52.6 ± 4.6 % WT and the “Baseline α-Gal A activity (% WT)” value came out at 38.4 ± 2.6 % WT. In addition, the “Baseline α-Gal A activity” value was found to be 11629 ± 835 nmol/mg/h and the “10 μM migalastat α-Gal A activity” value amounted to 15648 ± 1305 nmol/mg/h.

B5: Q107K (protein)
chain: MQLRNPELHLGCALALRFLALVSWDIPGARALDNGLARTPTMGWLHWERFMCNLDCQEEPDSCISEKLFMEMAELMVSEGWKDAGYEYLCIDDCWMAPQRDSEGRLKADPQRFPHGIRQLANYVHSKGLKLGIYADVGNKTCAGFPGSFGYYDIDAQTFADWGVDLLKFDGCYCDSLENLADGYKHMSLALNRTGRSIVYSCEWPLYMWPFQKPNYTEIRQYCNHWRNFADIDDSWKSIKSILDWTSFNQERIVDVAGPGGWNDPDMLVIGNFGLSWNQQVTQMALWAIMAAPLFMSNDLRHISPQAKALLQDKDVIAINQDPLGKQGYQLRQGDNFEVWERPLSGLAWAVAMINRQEIGGPRSYTIAVASLGKGVACNPACFITQLLPVKRKLGFYEWTSRLRSHINPTGTVLLQLENTMQMSLKDLL
B5: the “Absolute increase (% WT)” value amounted to 16.4 % WT, the Relative increase was determined as 1.4, the “10 μM migalastat α-Gal A activity (% WT)” value worked out at 54.6 ± 4.8 % WT and the “Baseline α-Gal A activity (% WT)” value was 38.2 ± 3.9 % WT. Moreover, the “Baseline α-Gal A activity” value was determined as 14579 ± 2689 nmol/mg/h and the “10 μM migalastat α-Gal A activity” value stood at 20402 ± 3399 nmol/mg/h.

B6: Q107E (protein)
chain: MQLRNPELHLGCALALRFLALVSWDIPGARALDNGLARTPTMGWLHWERFMCNLDCQEEPDSCISEKLFMEMAELMVSEGWKDAGYEYLCIDDCWMAPQRDSEGRLEADPQRFPHGIRQLANYVHSKGLKLGIYADVGNKTCAGFPGSFGYYDIDAQTFADWGVDLLKFDGCYCDSLENLADGYKHMSLALNRTGRSIVYSCEWPLYMWPFQKPNYTEIRQYCNHWRNFADIDDSWKSIKSILDWTSFNQERIVDVAGPGGWNDPDMLVIGNFGLSWNQQVTQMALWAIMAAPLFMSNDLRHISPQAKALLQDKDVIAINQDPLGKQGYQLRQGDNFEVWERPLSGLAWAVAMINRQEIGGPRSYTIAVASLGKGVACNPACFITQLLPVKRKLGFYEWTSRLRSHINPTGTVLLQLENTMQMSLKDLL
Consider B6, for which the “Absolute increase (% WT)” value was found to be 10.4 % WT, the Relative increase worked out at 1.2, the “10 μM migalastat α-Gal A activity (% WT)” value is reported as 56.2 ± 3.3 % WT and the “Baseline α-Gal A activity (% WT)” value is listed as 45.7 ± 3.1 % WT. For the same molecule, the “Baseline α-Gal A activity” value was 13148 ± 985 nmol/mg/h and the “10 μM migalastat α-Gal A activity” value stood at 16149 ± 1059 nmol/mg/h.

B7: A108V (protein)
chain: MQLRNPELHLGCALALRFLALVSWDIPGARALDNGLARTPTMGWLHWERFMCNLDCQEEPDSCISEKLFMEMAELMVSEGWKDAGYEYLCIDDCWMAPQRDSEGRLQVDPQRFPHGIRQLANYVHSKGLKLGIYADVGNKTCAGFPGSFGYYDIDAQTFADWGVDLLKFDGCYCDSLENLADGYKHMSLALNRTGRSIVYSCEWPLYMWPFQKPNYTEIRQYCNHWRNFADIDDSWKSIKSILDWTSFNQERIVDVAGPGGWNDPDMLVIGNFGLSWNQQVTQMALWAIMAAPLFMSNDLRHISPQAKALLQDKDVIAINQDPLGKQGYQLRQGDNFEVWERPLSGLAWAVAMINRQEIGGPRSYTIAVASLGKGVACNPACFITQLLPVKRKLGFYEWTSRLRSHINPTGTVLLQLENTMQMSLKDLL
In the case of B7, the “Absolute increase (% WT)” value amounted to 34.4 % WT, the Relative increase worked out at 3.5, the “10 μM migalastat α-Gal A activity (% WT)” value is given as 47.7 ± 4.6 % WT and the “Baseline α-Gal A activity (% WT)” value worked out at 13.3 ± 1.7 % WT. Besides, the “Baseline α-Gal A activity” value was 4914 ± 799 nmol/mg/h and the “10 μM migalastat α-Gal A activity” value is 17249 ± 2284 nmol/mg/h.

B8: L106V (protein)
chain: MQLRNPELHLGCALALRFLALVSWDIPGARALDNGLARTPTMGWLHWERFMCNLDCQEEPDSCISEKLFMEMAELMVSEGWKDAGYEYLCIDDCWMAPQRDSEGRVQADPQRFPHGIRQLANYVHSKGLKLGIYADVGNKTCAGFPGSFGYYDIDAQTFADWGVDLLKFDGCYCDSLENLADGYKHMSLALNRTGRSIVYSCEWPLYMWPFQKPNYTEIRQYCNHWRNFADIDDSWKSIKSILDWTSFNQERIVDVAGPGGWNDPDMLVIGNFGLSWNQQVTQMALWAIMAAPLFMSNDLRHISPQAKALLQDKDVIAINQDPLGKQGYQLRQGDNFEVWERPLSGLAWAVAMINRQEIGGPRSYTIAVASLGKGVACNPACFITQLLPVKRKLGFYEWTSRLRSHINPTGTVLLQLENTMQMSLKDLL
B8: the “Absolute increase (% WT)” value is listed as 19.8 % WT, the Relative increase came to 1.4, the “10 μM migalastat α-Gal A activity (% WT)” value came out at 73.4 ± 5.9 % WT and the “Baseline α-Gal A activity (% WT)” value turned out to be 53.6 ± 4.3 % WT. Besides, the “Baseline α-Gal A activity” value was 15393 ± 1288 nmol/mg/h and the “10 μM migalastat α-Gal A activity” value was found to be 20991 ± 1611 nmol/mg/h.

Source of the values: patent US11833164B2, “Methods of treating Fabry disease in patients having a mutation in the GLA gene” (Amicus Therapeutics, Inc., priority 2019, dated 2023).
